This is an account of results in publication PMC10864350, “Phosphorylation-dependent deubiquitinase OTUD3 regulates YY1 stability and promotes colorectal cancer progression” (Cell Death & Disease, 2024).

Experiment [1] deals with YY1 (UniProt P25490). Put plainly: co-IP. The note with it: reference: HA-OTUD3 wild type; sites S326.
Experiment [2] concerns the target T1, Myc-tagged PLK1 (wild-type) (UniProt P53350 1-603).
T1 construct: Polo-like kinase 1 (PLK1), wild type, cloned into pCDNA3.1-CMV-Myc-C; The vector name pCDNA3.1-CMV-Myc-C may mean a C-terminal tag; also called Myc-PLK1; source: SW480, transfected, in lysate
Put plainly: pull-down; GST or GST-OTUD3 (E. coli) incubated overnight at 4 °C with purified Flag-YY1 or Myc-PLK1 from HEK-293T; Glutathione-Sepharose 4B beads; immunoblot with anti-Flag or anti-Myc. The note with it: both partners purified. A general note: A western blot detects proteins with antibodies after separation by electrophoresis.

Experiment [3] addresses T2, Flag-tagged YY1 (Yin Yang 1), full length, wild type (UniProt P25490 1-414).
T2 construct: Yin Yang 1 (YY1), zinc finger transcription factor, full-length wild type cloned into pCDNA3.1-CMV-Flag-C; The vector name pCDNA3.1-CMV-Flag-C may mean a C-terminal tag; also called Flag-YY1; YY1-WT; source: SW480, transfected, in lysate
The experiment is described as above. The note with it: both partners purified.

T1 sequence (P53350 whole entry): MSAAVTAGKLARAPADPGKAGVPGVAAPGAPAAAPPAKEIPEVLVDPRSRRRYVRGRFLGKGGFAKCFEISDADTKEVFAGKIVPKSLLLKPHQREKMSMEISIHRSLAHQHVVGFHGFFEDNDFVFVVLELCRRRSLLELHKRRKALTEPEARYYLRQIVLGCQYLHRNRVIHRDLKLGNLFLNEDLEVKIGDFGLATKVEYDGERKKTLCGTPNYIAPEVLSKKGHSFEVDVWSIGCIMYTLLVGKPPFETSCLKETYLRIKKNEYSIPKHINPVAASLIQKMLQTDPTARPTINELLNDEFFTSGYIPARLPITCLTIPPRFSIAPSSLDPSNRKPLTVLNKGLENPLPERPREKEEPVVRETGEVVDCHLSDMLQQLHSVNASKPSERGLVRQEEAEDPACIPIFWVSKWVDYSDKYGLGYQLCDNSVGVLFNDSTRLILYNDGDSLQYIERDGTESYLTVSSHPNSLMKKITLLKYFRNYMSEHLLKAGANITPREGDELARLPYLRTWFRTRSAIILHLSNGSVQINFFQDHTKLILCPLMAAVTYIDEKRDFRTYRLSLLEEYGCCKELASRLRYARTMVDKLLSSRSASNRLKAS
T2 sequence (P25490 whole entry): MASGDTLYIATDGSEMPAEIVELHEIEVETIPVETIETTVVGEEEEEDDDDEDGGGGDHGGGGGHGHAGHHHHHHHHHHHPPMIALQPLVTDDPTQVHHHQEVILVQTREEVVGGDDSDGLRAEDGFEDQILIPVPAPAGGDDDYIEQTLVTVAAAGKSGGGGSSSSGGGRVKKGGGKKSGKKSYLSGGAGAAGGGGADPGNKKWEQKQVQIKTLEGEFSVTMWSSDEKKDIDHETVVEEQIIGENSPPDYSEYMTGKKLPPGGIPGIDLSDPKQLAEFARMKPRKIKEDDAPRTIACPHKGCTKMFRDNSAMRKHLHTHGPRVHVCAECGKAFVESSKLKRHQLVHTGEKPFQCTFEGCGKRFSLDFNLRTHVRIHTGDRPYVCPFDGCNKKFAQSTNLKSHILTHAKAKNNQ

“OTUD3 (from UniProt Q5T2D3) HA-OTUD3 S326A”: the “binding against the reference” value in experiment [1] is given as “weaker”.

B1: GST-OTUD3 recombinant protein (enzyme, human, UniProt Q5T2D3 1-398, looked up)
chain: MSRKQAAKSRPGSGSRKAEAERKRDERAARRALAKERRNRPESGGGGGCEEEFVSFANQLQALGLKLREVPGDGNCLFRALGDQLEGHSRNHLKHRQETVDYMIKQREDFEPFVEDDIPFEKHVASLAKPGTFAGNDAIVAFARNHQLNVVIHQLNAPLWQIRGTEKSSVRELHIAYRYGEHYDSVRRINDNSEAPAHLQTDFQMLHQDESNKREKIKTKGMDSEDDLRDEVEDAVQKVCNATGCSDFNLIVQNLEAENYNIESAIIAVLRMNQGKRNNAEENLEPSGRVLKQCGPLWEEGGSGARIFGNQGLNEGRTENNKAQASPSEENKANKNQLAKVTNKQRREQQWMEKKKRQEERHRHKALESRGSHRDNNRSEAEANTQVTLVKTFAALNI
notes: OTUD3 cloned into the pGEX-6P-1 vector; also called GST-tagged OTUD3; GST-labeled OTUD3; source: Escherichia coli BL21 (DE3), purified (Glutathione Sepharose 4B beads)
As for B1, the binding result in experiment [2] and in experiment [3] was “binds” in each case.
